Residue numbers refer to the chain shown, from its start.
B1: P283DR9P1364_H9 (designed binder)
chain: LPAPKNLVVSRVTEDSARLSWTAPDAAFDSFSISYIEYPEIPGGEAIVLTVPGSERSYDLTGLKPGTEYWVPIWGVKGGIQSWPLSAIFTT
notes: FN3 domain
B2: P283DR9P1364_F6 (designed binder)
chain: LPAPKNLVVSRVTEDSARLSWTAPDAAFDSFTIAYPEREQDKWGEAIVLTVPGSERSYDLTGLKPGTEYWVIIQGVKGGRPSTPLSAILTT
notes: FN3 domain
B3: P283BR9P1363_G7 (designed binder)
chain: LPAPKNLVVSRVTEDSARLSWSAKKFPRHFDSFLIQYQESEKVGEAIVLTVPGSERSYDLTGLKPGTEYTVSIYGVDVKWEGNRPVASNPLSAIFTT
notes: FN3 domain
B4: P283BR9P1363_G2 (designed binder)
chain: B3 chain with S22P, A23K, K24N, K25Q, F26T, P27N
notes: FN3 domain
B5: P283BR9P1363_F4 (designed binder)
chain: B3 chain with S22E, A23R, K24I, K25V, F26Q, P27T, R28P
notes: FN3 domain
B6: P283BR9P1363_E6 (designed binder)
chain: B3 chain with S22Y, K24R, P27I, R28S, H29P
notes: FN3 domain
B7: P283BR9P1363_F6 (designed binder)
chain: LPAPKNLVVSRVTEDSARLSWPEEAVTATSFDSFLIQYQESEKVGEAIVLTVPGSERSYDLTGLKPGTEYTVSIYGVDVKWEGNRPVASNPLSAIFTT
notes: FN3 domain
B8: P283BR9P1363_G5 (designed binder)
chain: B7 chain with P22Y, E23R, E24A, A25T, V26T, T27P, T29P, S30H
notes: FN3 domain
B9: P283DR9P1364_F8 (designed binder)
chain: LPAPKNLVVSRVTEDSARLSWTAPDAAFDSFAIAYPEWPPGEAIVLTVPGSERSYDLTGLKPGTEYFVIIYGVKGGWTSPPLSAIFTT
notes: FN3 domain
B10: P283BR9P1363_F2 (designed binder)
chain: LPAPKNLVVSRVTEDSARLSWYRPDNRAGAFDSFLIQYQESEKVGEAIVLTVPGSERSYDLTGLKPGTEYTVSIYGVDVKYDIDSRPISSNPLSAIFTT
notes: FN3 domain
B11: P283HR7P1368_G1 (designed binder)
chain: LPAPKNLVVSRVTEDSARLSWTAPDAAFDSFLITYWEIEPEGEAIFLGVPGSERSYDLTGLKPGTEYRVQINGVKGGTISYPLFAGFTT
notes: FN3 domain
B12: P283HR7P1368_H8 (designed binder)
chain: LPAPKNLVVSRVTEDSARLSWTAPDAAFDSFGITYLDPRNGEAISLNVPGSERSYDLTGLKPGTEYWVVIIGVKGGINSYPLGASFTT
notes: FN3 domain
B13: P283HR7P1368_F6 (designed binder)
chain: LPAPKNLVVSRVTEDSARLSWTAPDAAFDSFGIGYIEWVHRGEAISLHVPGSERSYDLTGLKPGTEYVVAIVGVKGGEPSTPLGAPFTT
notes: FN3 domain
B14: P283ER9P1365_A1 (designed binder)
chain: B13 chain with G34A, I36V, V39W, H48P, V68N, A70I, V72T, E78I, T81H, P86I
notes: FN3 domain
B15: P283HR7P1368_G10 (designed binder)
chain: B13 chain with G34A, I36V, V39W, H48P, V68W, A70T, V72L, E78I, P79I, P86S
notes: FN3 domain
B16: CD8S396 (designed binder)
chain: LPAPKNLVVSRVTEDSARLSWTAPDAAFDSFYITYPEWPDPGGEAIVLTVPGSERSYDLTGLKPGTEYFVVIYGVKGGEIYSPLSAIFTT
notes: W32Y mutant of P282DR9P1359_C5; the entry holds the mutation
B17: CD8S399 (designed binder)
chain: B16 chain with Y32W, W38Y
notes: W38Y mutant of P282DR9P1359_C5; the entry holds the mutation
B18: CD8S397 (designed binder)
chain: B16 chain with Y32Q
notes: W32Q mutant of P282DR9P1359_C5; the entry holds the mutation
B19: CD8S398 (designed binder)
chain: B16 chain with Y32S
notes: W32S mutant of P282DR9P1359_C5; the entry holds the mutation

These binders were tested against T1, cynomolgus monkey CD8 alpha on primary cynomolgus CD8+ T cells (cynomolgus monkey, UniProt P01732 23-235 (human entry)) (assay: flow cytometry, cyno CD8+ T cells).
T1 construct: also called Cyno CD8alpha; cyno CD8A
T1 sequence (P01732 other isoform, or with tags, fused parts or gaps limits assumed): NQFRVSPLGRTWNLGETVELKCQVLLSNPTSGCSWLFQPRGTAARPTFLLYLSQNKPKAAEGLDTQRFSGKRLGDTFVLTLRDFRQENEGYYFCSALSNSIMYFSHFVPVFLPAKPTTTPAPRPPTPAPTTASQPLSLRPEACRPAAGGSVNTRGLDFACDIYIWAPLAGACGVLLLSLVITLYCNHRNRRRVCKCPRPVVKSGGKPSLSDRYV

In order of rising “Cyno T-cell Binding 0.2 uM (MFI)” value:
1. B9  1300 MFI
2. B14  1360 MFI
3. B15  2660 MFI
4. B3  3020 MFI
5. B2  3160 MFI
6. B13  3540 MFI
7. B6  3720 MFI
8. B8  4430 MFI
9. B5  4480 MFI
10. B1  4560 MFI
11. B7  4570 MFI
12. B12  4890 MFI
13. B10  5280 MFI
14. B4  5380 MFI
15. B11  11600 MFI

In order of falling “Cyno T-cell Binding 2 uM (MFI)” value:
1. B11  69800 MFI
2. B1  54600 MFI
3. B9  36700 MFI
4. B12  35900 MFI
5. B2  33800 MFI
6. B10  33300 MFI
7. B7  31600 MFI
8. B8  24900 MFI
9. B15  23800 MFI
10. B13  20600 MFI
11. B5  20200 MFI
12. B6  16800 MFI
13. B4  15900 MFI
14. B14  9680 MFI
15. B3  7210 MFI

The binders below were run against T2, human CD8A-Fc (in house) (human, UniProt P01732 22-182, limits assumed) (assay: SPR (ProteOn), captured hCD8A-Fc).
T2 construct: captured by goat anti-human Fc on the ProteOn chip; also called hCD8A-Fc; recombinant human CD8 alpha; not shown: linker/tag and Fc of human IgG1
T2 sequence (P01732 22-182 limits assumed): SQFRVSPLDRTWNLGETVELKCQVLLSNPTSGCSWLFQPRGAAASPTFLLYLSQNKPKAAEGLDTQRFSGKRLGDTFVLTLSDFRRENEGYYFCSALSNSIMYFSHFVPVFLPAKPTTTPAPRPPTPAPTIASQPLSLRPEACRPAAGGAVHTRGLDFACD

In order of rising koff:
1. B3  4.01e-05 s⁻¹
2. B7  8.21e-05 s⁻¹
3. B4  0.000122 s⁻¹
4. B8  0.00014 s⁻¹
5. B5  0.000155 s⁻¹
6. B13  0.00018 s⁻¹
7. B1  0.000271 s⁻¹
8. B10  0.000288 s⁻¹
9. B14  0.000467 s⁻¹
10. B12  0.000763 s⁻¹
11. B2  0.001 s⁻¹
12. B6  0.00136 s⁻¹
13. B15  0.00145 s⁻¹
14. B9  0.00174 s⁻¹
15. B11  0.00215 s⁻¹

What follows are binders tested against T3, human CD8 alpha (CD8A) on primary human CD8+ T cells (human, UniProt P01732 22-235) (assay: flow cytometry, human CD8+ T cells).
T3 construct: whole, on cells; also called hCD8A
T3 sequence (P01732 22-235): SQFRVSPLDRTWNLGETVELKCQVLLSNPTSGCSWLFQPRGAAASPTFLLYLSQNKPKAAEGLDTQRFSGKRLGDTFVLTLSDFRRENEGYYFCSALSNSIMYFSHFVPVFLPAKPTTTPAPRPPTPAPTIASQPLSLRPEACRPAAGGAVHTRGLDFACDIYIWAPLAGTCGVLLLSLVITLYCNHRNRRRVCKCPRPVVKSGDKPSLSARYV

In order of falling “Human T-cell Binding 0.2 uM (MFI)” value:
1. B11  4940 MFI
2. B1  4060 MFI
3. B14  3860 MFI
4. B13  3510 MFI
5. B8  3310 MFI
6. B10  3270 MFI
7. B4  3230 MFI
8. B7  3230 MFI
9. B5  2960 MFI
10. B3  2340 MFI
11. B6  2080 MFI
12. B2  1830 MFI
13. B12  1610 MFI
14. B15  753 MFI
15. B9  458 MFI

In order of falling “Human T-cell Binding 2 uM (MFI)” value:
1. B1  32800 MFI
2. B11  31300 MFI
3. B14  25500 MFI
4. B12  22800 MFI
5. B2  17200 MFI
6. B8  14800 MFI
7. B10  14500 MFI
8. B13  14300 MFI
9. B5  11900 MFI
10. B7  10600 MFI
11. B4  9640 MFI
12. B6  8240 MFI
13. B15  8120 MFI
14. B9  6300 MFI
15. B3  4640 MFI

Each binder was assayed against T4, human CD8A-Fc (recombinant human CD8 alpha fused to Fc fragment of human IgG1) (human, UniProt P01732 22-182, limits assumed) (assay: SPR, dissociation rate on recombinant CD8 alpha).
T4 construct: SPR ligand, captured by goat anti-human Fc; also called hCD8A-Fc; recombinant CD8 alpha; not shown: linker with flag (and polyhistidine) tag and Fc fragment of human IgG1; depends on which of the two constructs was used
T4 sequence (P01732 22-182 limits assumed): as the sequence (P01732 22-182 limits assumed) above

In order of falling koff:
1. B17  0.00134 s⁻¹
2. B18  0.00066 s⁻¹
3. B19  0.000443 s⁻¹
4. B16  0.000152 s⁻¹

Source: patent publication US20210032312A1 (Janssen / Centocor, published 2021)
